Among the data in paper PMC13061610 are stoichiometry N values, retold here.

For this assay, the target named is Dob3 (Nocardia ninae). Nature of the assay: SEC; Superdex 200, 20 mM HEPES pH 8.0, 10 mM MgCl2, 50 mM NaCl, 10% glycerol; compared with Bio-Rad gel filtration standards.

Dob3 (enzyme) showed a stoichiometry N of 2.
